Numbering of substitutions follows the chain as printed.
Assays:
[1] = molecular target: T1, bovine pancreatic RNase A (bovine, UniProt P61823 27-150); experiment: ITC, 25 C, no metal
T1 construct: mature; Commercial purified protein; Used unmodified in ITC and as plate coat; biotinylated only for phage selection
T1 sequence (looked up): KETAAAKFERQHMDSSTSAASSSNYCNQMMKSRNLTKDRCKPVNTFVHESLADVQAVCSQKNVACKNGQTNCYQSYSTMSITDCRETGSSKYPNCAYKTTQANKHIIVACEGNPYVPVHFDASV
Method: (§1) ITC experiments were performed using a MicroCal VP-ITC (MicroCal, LLC, Northampton, Mass.). All experiments were performed at 25° C. Proteins were dialyzed against the desired experimental buffer, which included PBS (20 mM NaPhosphate, 150 mM NaCl pH 7.4), TBS (20 mM Tris-HCl, 150 mM NaCl pH 7.4) and TBS-E (20 mM Tris, 150 mM NaCl, 1 mM EDTA, pH 7.4). For direct titration of NiCl₂ into the VHH-metal variant, concentrations were 2 mM and 200 μM for NiCl2 and VHH, respectively. Based on the observed binding constant, this corresponds to a “c-value” of 6.7, which is within the commonly acceptable range for the accurate determination of binding thermodynamics. For competitive titrations, nickel was included in TBS without EDTA at concentrations ranging from 0-10 mM. Competitive VHH/RNase A titration experiments with a “c” value greater than 10 included protein concentrations ranging from 30 μM to 205 μM. Conditions included a 10-fold higher concentration of titrant (VHH). […] These experiments included using a 100-fold higher concentration of titrant (RNase A) relative to VHH. RNase A concentrations were between 150 μM and 800 μM. […] For nickel/VHH titrations, the titrant nickel was dissolved in the appropriate dialysis buffer at a 10× concentration of the VHH. Experiments typically included 27, 10 μL injections with a 240 second delay between each injection. Dilution titrations indicated the absence of significant heats of dilution, consequently, no background dilution heat subtractions were necessary. The binding parameters (K, ΔH°, ΔS°, and n) were determined using the single site binding model using the ITC add-in in Origin version 7 (MicroCal LLC).

[2] = molecular target: T1, bovine pancreatic RNase A; experiment: ITC, 25 C, RNase A binding with 1 mM nickel present
Method: (§2) The binding parameters (K, ΔH°, ΔS°, and n) were determined using the single site binding model using the ITC add-in in Origin version 7 (MicroCal LLC). All titrations indicated a 1:1 interaction with observed stoichiometries equal to 1.0 (within 5%).
(§3) ITC experiments were performed using a MicroCal VP-ITC (MicroCal, LLC, Northampton, Mass.). All experiments were performed at 25° C. Proteins were dialyzed against the desired experimental buffer, which included PBS (20 mM NaPhosphate, 150 mM NaCl pH 7.4), TBS (20 mM Tris-HCl, 150 mM NaCl pH 7.4) and TBS-E (20 mM Tris, 150 mM NaCl, 1 mM EDTA, pH 7.4). For direct titration of NiCl₂ into the VHHmetal variant, concentrations were 2 mM and 200 μM for NiCl₂ and VHH, respectively. Based on the observed binding constant, this corresponds to a “cvalue” of 6.7, which is within the commonly acceptable range for the accurate determination of binding thermodynamics (Tellinghuisen, 2008; Wiseman et al. 1989). For competitive titrations, nickel was included in TBS without EDTA at concentrations ranging from 0-10 mM. Competitive VHH/RNase A titration experiments with a “c” value greater than 10 included protein concentrations ranging from 30 μM to 205 μM. Conditions included a 10-fold higher concentration of titrant (VHH). […] These experiments included using a 100-fold higher concentration of titrant (RNase A) relative to VHH. RNase A concentrations were between 150 μM and 800 μM. Extinction coefficients were determined using values determined by the methods described by Pace, et. al. (1995). […] For nickel/VHH titrations, the titrant nickel was dissolved in the appropriate dialysis buffer at a 10× concentration of the VHH. Experiments typically included 27, 10 μL injections with a 240 second delay between each injection. Dilution titrations indicated the absence of significant heats of dilution, consequently, no background dilution heat subtractions were necessary. The binding parameters (K, ΔH°, ΔS°, and n) were determined using the single site binding model using the ITC add-in in Origin version 7 (MicroCal LLC).

[3] = molecular target: T1, bovine pancreatic RNase A; experiment: ITC, pH 7.4
[4] = molecular target: T1, bovine pancreatic RNase A; experiment: ITC, pH 6, PBS
[5] = molecular target: T1, bovine pancreatic RNase A; experiment: ITC, pH 7, PBS
[6] = molecular target: T1, bovine pancreatic RNase A; experiment: ITC, pH 8, TRIS
[7] = molecular target: T1, bovine pancreatic RNase A; experiment: ITC, pH 7.4, PBS
[8] = molecular target: T1, bovine pancreatic RNase A; experiment: ITC, pH 5.5, acetate
[9] = molecular target: T1, bovine pancreatic RNase A; experiment: ITC, pH 5, piperazine
[10] = molecular target: T1, bovine pancreatic RNase A; experiment: ITC, pH profile 8.0 to 4.5
[11] = molecular target: T1, bovine pancreatic RNase A; experiment: ITC, pH 6.5, imidazole
[12] = molecular target: T1, bovine pancreatic RNase A; experiment: ITC, pH 4.5, piperazine
[13] = molecular target: T1, bovine pancreatic RNase A; experiment: ITC, pH 4.74, piperazine
[14] = molecular target: T1, bovine pancreatic RNase A; experiment: ITC, pH 7.4, against wild-type VHH
[15] = molecular target: T1, bovine pancreatic RNase A; experiment: ITC, 25 C, no metal; remark: listed apart in the source
Method: (§4) Isothermal titration calorimetry (ITC) was used to evaluate the thermodynamic basis for VHH-metal's dual function. […] As expected, titrations of nickel into wild-type anti-RNase A VHH produced no measurable binding.
(§5) ITC experiments were performed using a MicroCal VP-ITC (MicroCal, LLC, Northampton, Mass.). All experiments were performed at 25° C. Proteins were dialyzed against the desired experimental buffer, which included PBS (20 mM NaPhosphate, 150 mM NaCl pH 7.4), TBS (20 mM Tris-HCl, 150 mM NaCl pH 7.4) and TBS-E (20 mM Tris, 150 mM NaCl, 1 mM EDTA, pH 7.4). For direct titration of NiCl₂ into the VHH-metal variant, concentrations were 2 mM and 200 μM for NiCl2 and VHH, respectively. Based on the observed binding constant, this corresponds to a “c-value” of 6.7, which is within the commonly acceptable range for the accurate determination of binding thermodynamics. For competitive titrations, nickel was included in TBS without EDTA at concentrations ranging from 0-10 mM. Competitive VHH/RNase A titration experiments with a “c” value greater than 10 included protein concentrations ranging from 30 μM to 205 μM. Conditions included a 10-fold higher concentration of titrant (VHH).

[16] = molecular target: T1, bovine pancreatic RNase A; experiment: ITC, 25 C, pH 7.4, no metal
Method: as §1

[17] = molecular target: T1, bovine pancreatic RNase A; experiment: ITC, 25 C, no metal, against wild-type VHH
Method: as §4, §5

[18] = molecular target: T1, bovine pancreatic RNase A; experiment: ITC, 25 C, RNase A binding with 1 µM nickel present
Method: as §2, §3

[19] = molecular target: T1, bovine pancreatic RNase A; experiment: ITC, 25 C, RNase A binding with 10 mM nickel present
Method: as §2, §3

[20] = molecular target: T1, bovine pancreatic RNase A; experiment: ITC, 25 C, RNase A binding with 10 µM nickel present
Method: as §2, §3

[21] = molecular target: T1, bovine pancreatic RNase A; experiment: ITC, 25 C, RNase A binding with 100 µM nickel present
[22] = molecular target: T1, bovine pancreatic RNase A; experiment: competitive phage ELISA with and without 1 mM metals (Zn2+, Co2+, Ni2+)

B1: wild-type anti-RNase A VHH (cAb-RN05) (VHH)
VHH: QVQLVESGGGLVQAGGSLRLSCAASGYAYTYIYMGWFRQAPGKEREGVAAMDSGGGGTLYADSVKGRFTISRDKGKNTVYLQMDSLKPEDTATYYCAAGGGYELRDRTYGQWGQGTQVTVSS
notes: Camelid single-domain antibody; Made in E. coli with an N-terminal hexa-His-TEV tag for ITC; also called VHH-wt; wt-VHH
Question: How did the “-TΔS°” value [1] turn out when B1 was run?
Answer: 1.9 kcal/mol

Question: What about the Kd [1] of the same binder?
Answer: 19 nM

Question: And the “ΔG°” value [1]?
Answer: -10.5 kcal/mol

Question: What about the “ΔH°” value [1] of the same binder?
Answer: -12.4 kcal/mol

Question: What about the “-TΔS°” value [2] of the same binder?
Answer: 0.9 kcal/mol

Question: What about the Kd [2] of the same binder?
Answer: 16 nM

Question: And the “ΔG°” value [2]?
Answer: -10.6 kcal/mol

Question: What about the “ΔH°” value [2] of the same binder?
Answer: -10.7 kcal/mol

B2: VHH#24 (pH clone #24) (VHH)
VHH: B1 VHH with A28H, Y29H, Y102H, E103H, R107H
Question: With B2 as the binder, how does the Kd [3] read?
Answer: 91 nM

Question: What about the “-TΔS” value [4] of the same binder?
Answer: -8.6 kcal/mol

Question: What about the Kd [4] of the same binder?
Answer: 6500 nM

Question: What about the ΔG [4] of the same binder?
Answer: -7.07 kcal/mol

Question: What about the ΔH [4] of the same binder?
Answer: 1.5 kcal/mol

Question: And the “-TΔS” value [5]?
Answer: 0.7 kcal/mol

Question: And the Kd [5]?
Answer: 200 nM

Question: What about the ΔG [5] of the same binder?
Answer: -9.07 kcal/mol

Question: What about the ΔH [5] of the same binder?
Answer: -4.35 kcal/mol

Question: And the “-TΔS” value [6]?
Answer: -3.8 kcal/mol

Question: And the Kd [6]?
Answer: 100 nM

Question: And the ΔG [6]?
Answer: -9.37 kcal/mol

Question: What about the ΔH [6] of the same binder?
Answer: -9 kcal/mol

Question: What about the “-TΔS” value [7] of the same binder?
Answer: -2.5 kcal/mol

Question: And the Kd [7]?
Answer: 200 nM

Question: What about the ΔG [7] of the same binder?
Answer: -9.31 kcal/mol

Question: What about the ΔH [7] of the same binder?
Answer: -6.84 kcal/mol

Question: And the Kd [8]?
Answer: 6300 nM

Question: And the ΔG [8]?
Answer: -7.09 kcal/mol

Question: What about the ΔH [8] of the same binder?
Answer: 3 kcal/mol

Question: And the “-TΔS” value [9]?
Answer: -2.4 kcal/mol

Question: And the Kd [9]?
Answer: 12000 nM

Question: What about the ΔG [9] of the same binder?
Answer: -7.03 kcal/mol

Question: What about the ΔH [9] of the same binder?
Answer: -4.8 kcal/mol

Question: And the “fold decrease of the observed binding constant on decreasing the pH” value [10]?
Answer: ~10000 fold

Question: What about the Kd [11] of the same binder?
Answer: 400 nM

Question: And the ΔG [11]?
Answer: -8.73 kcal/mol

Question: And the ΔH [11]?
Answer: -9.44 kcal/mol

Question: What about the “-TΔS” value [12] of the same binder?
Answer: 25.4 kcal/mol

Question: What about the ΔG [12] of the same binder?
Answer: -5.11 kcal/mol

Question: What about the ΔH [12] of the same binder?
Answer: -30 kcal/mol

Question: What about the “-TΔS” value [13] of the same binder?
Answer: 6.8 kcal/mol

Question: What about the Kd [13] of the same binder?
Answer: 75000 nM

Question: What about the ΔG [13] of the same binder?
Answer: -5.62 kcal/mol

Question: What about the ΔH [13] of the same binder?
Answer: -12.4 kcal/mol

Question: What about the “fold difference of binding affinity from the wild-type value” [14] of the same binder?
Answer: ≤ 5 fold

B3: VHH-metal (metal sensitive anti-RNase A VHH) (VHH)
VHH: B1 VHH with A28P, Y29H, T30P, I32L, Y33H, E103Q, Q111H
notes: also called Metal-VHH; metal clone VHH
Question: Which Kd [15] does the source give for B3 here?
Answer: 155 nM

Question: And the “-TΔS°” value [16]?
Answer: 9 kcal/mol

Question: And the Kd [16]?
Answer: 157 nM

Question: And the “ΔG°” value [16]?
Answer: -9.3 kcal/mol

Question: What about the “ΔH°” value [16] of the same binder?
Answer: -17.8 kcal/mol

Question: And the “fold decrease in binding affinity against wild type” value [17]?
Answer: ~8 fold

Question: What about the “ΔΔG°” value [17] of the same binder?
Answer: 1.2 kcal/mol

Question: And the “-TΔS°” value [18]?
Answer: 8 kcal/mol

Question: And the Kd [18]?
Answer: 160 nM

Question: And the “ΔG°” value [18]?
Answer: -9.27 kcal/mol

Question: And the “ΔH°” value [18]?
Answer: -17.2 kcal/mol

Question: What about the “-TΔS°” value [2] of the same binder?
Answer: 0.09 kcal/mol

Question: And the Kd [2]?
Answer: 5640 nM

Question: What about the “ΔG°” value [2] of the same binder?
Answer: -7.13 kcal/mol

Question: What about the “ΔH°” value [2] of the same binder?
Answer: -7.2 kcal/mol

Question: And the “-TΔS°” value [19]?
Answer: 1.3 kcal/mol

Question: And the Kd [19]?
Answer: 34000 nM

Question: What about the “ΔG°” value [19] of the same binder?
Answer: -6.07 kcal/mol

Question: And the “ΔH°” value [19]?
Answer: -7.3 kcal/mol

Question: What about the “-TΔS°” value [20] of the same binder?
Answer: 3.6 kcal/mol

Question: What about the Kd [20] of the same binder?
Answer: 219 nM

Question: And the “ΔG°” value [20]?
Answer: -9.1 kcal/mol

Question: What about the “ΔH°” value [20] of the same binder?
Answer: -12.7 kcal/mol

Question: And the “-TΔS°” value [21]?
Answer: -1 kcal/mol

Question: And the Kd [21]?
Answer: 900 nM

Question: And the “ΔG°” value [21]?
Answer: -8.27 kcal/mol

Question: And the “ΔH°” value [21]?
Answer: -7 kcal/mol

Question: And the “fold change in IC50” value [22]?
Answer: 1000 fold

Reference: patent US20180230457A1 (published 2018)
